Ends that are not written are not given here. * marks the point of attachment. C16 diacid = O=C(O)CCCCCCCCCCCCCCC(=O)*; Stearoyl = CCCCCCCCCCCCCCCCCC(=O)*; Palmitoyl = CCCCCCCCCCCCCCCC(=O)*
T1: human GIP receptor (human, UniProt P48546 22-466)
T1 sequence (looked up): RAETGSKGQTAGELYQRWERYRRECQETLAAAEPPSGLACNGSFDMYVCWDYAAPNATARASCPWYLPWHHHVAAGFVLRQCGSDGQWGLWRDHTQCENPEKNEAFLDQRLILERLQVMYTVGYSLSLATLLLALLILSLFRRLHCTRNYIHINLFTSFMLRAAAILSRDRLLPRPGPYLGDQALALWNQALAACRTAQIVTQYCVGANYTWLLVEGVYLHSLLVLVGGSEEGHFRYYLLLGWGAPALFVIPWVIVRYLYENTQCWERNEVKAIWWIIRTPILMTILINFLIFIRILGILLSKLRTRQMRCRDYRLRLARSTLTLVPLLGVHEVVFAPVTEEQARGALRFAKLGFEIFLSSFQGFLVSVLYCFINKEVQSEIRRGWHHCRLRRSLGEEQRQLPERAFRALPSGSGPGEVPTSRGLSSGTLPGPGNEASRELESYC


Biological target: T1, human GIP receptor
Assay: cell-based or functional assay

Row | Binder | cAMP agonism, EC50 (log) [log M] | cAMP agonism, Emax [%] | cAMP agonism, nM (EC50) [nM] | cAMP antagonism, log (IC50) [log M] | cAMP antagonism, nM (IC50) [nM]
1 | EGTFIK(C16 diacid)DYSIAMDKIHQQDFVNWLLAQK-NH2 (N-terminus assumed; SMILES CC[C@H](C)[C@H](NC(=O)[C@H](CO)NC(=O)[C@H](Cc1ccc(O)cc1)NC(=O)[C@H](CC(=O)O)NC(=O)[C@H](CCCCNC(=O)CCCCCCCCCCCCCCC(=O)O)NC(=O)[C@@H](NC(=O)[C@H](Cc1ccccc1)NC(=O)[C@@H](NC(=O)CNC(=O)[C@@H](N)CCC(=O)O)[C@@H](C)O)[C@@H](C)CC)C(=O)N[C@@H](C)C(=O)N[C@@H](CCSC)C(=O)N[C@@H](CC(=O)O)C(=O)N[C@@H](CCCCN)C(=O)N[C@H](C(=O)N[C@@H](Cc1c[nH]cn1)C(=O)N[C@@H](CCC(N)=O)C(=O)N[C@@H](CCC(N)=O)C(=O)N[C@@H](CC(=O)O)C(=O)N[C@@H](Cc1ccccc1)C(=O)N[C@H](C(=O)N[C@@H](CC(N)=O)C(=O)N[C@@H](Cc1c[nH]c2ccccc12)C(=O)N[C@@H](CC(C)C)C(=O)N[C@@H](CC(C)C)C(=O)N[C@@H](C)C(=O)N[C@@H](CCC(N)=O)C(=O)N[C@@H](CCCCN)C(N)=O)C(C)C)[C@@H](C)CC) [AT299 [hGIP(3-30)NH2[S8K]-C16diacid/8]] | -7.8 | 15.2 | 15 | -6.7 | 199
2 | EGTFISDYSIAMDK(Palmitoyl)IKQQDFVNWLLAQK-NH2 (N-terminus assumed; SMILES CCCCCCCCCCCCCCCC(=O)NCCCC[C@H](NC(=O)[C@H](CC(=O)O)NC(=O)[C@H](CCSC)NC(=O)[C@H](C)NC(=O)[C@@H](NC(=O)[C@H](CO)NC(=O)[C@H](Cc1ccc(O)cc1)NC(=O)[C@H](CC(=O)O)NC(=O)[C@H](CO)NC(=O)[C@@H](NC(=O)[C@H](Cc1ccccc1)NC(=O)[C@@H](NC(=O)CNC(=O)[C@@H](N)CCC(=O)O)[C@@H](C)O)[C@@H](C)CC)[C@@H](C)CC)C(=O)N[C@H](C(=O)N[C@@H](CCCCN)C(=O)N[C@@H](CCC(N)=O)C(=O)N[C@@H](CCC(N)=O)C(=O)N[C@@H](CC(=O)O)C(=O)N[C@@H](Cc1ccccc1)C(=O)N[C@H](C(=O)N[C@@H](CC(N)=O)C(=O)N[C@@H](Cc1c[nH]c2ccccc12)C(=O)N[C@@H](CC(C)C)C(=O)N[C@@H](CC(C)C)C(=O)N[C@@H](C)C(=O)N[C@@H](CCC(N)=O)C(=O)N[C@@H](CCCCN)C(N)=O)C(C)C)[C@@H](C)CC) [AT163 [hGIP(3-30)NH2[H18K]-C16/16]] | – | 0 | – | -6.7 | 212
3 | EGTKISDYSIAMDKIHQQDFVNWLLAQK (C16-diacid (1,16-hexadecanedioic acid) on Lys 6 (GIP numbering); C-terminal amide) [AT297 [hGIP(3-30)NH2[F6K]-C16diacid/6]] | -7 | 19 | 9 | -6.2 | 603
4 | EK(C16 diacid)TFISDYSIAMDKIHQQDFVNWLLAQK-NH2 (N-terminus assumed; SMILES CC[C@H](C)[C@H](NC(=O)[C@H](CO)NC(=O)[C@H](Cc1ccc(O)cc1)NC(=O)[C@H](CC(=O)O)NC(=O)[C@H](CO)NC(=O)[C@@H](NC(=O)[C@H](Cc1ccccc1)NC(=O)[C@@H](NC(=O)[C@H](CCCCNC(=O)CCCCCCCCCCCCCCC(=O)O)NC(=O)[C@@H](N)CCC(=O)O)[C@@H](C)O)[C@@H](C)CC)C(=O)N[C@@H](C)C(=O)N[C@@H](CCSC)C(=O)N[C@@H](CC(=O)O)C(=O)N[C@@H](CCCCN)C(=O)N[C@H](C(=O)N[C@@H](Cc1c[nH]cn1)C(=O)N[C@@H](CCC(N)=O)C(=O)N[C@@H](CCC(N)=O)C(=O)N[C@@H](CC(=O)O)C(=O)N[C@@H](Cc1ccccc1)C(=O)N[C@H](C(=O)N[C@@H](CC(N)=O)C(=O)N[C@@H](Cc1c[nH]c2ccccc12)C(=O)N[C@@H](CC(C)C)C(=O)N[C@@H](CC(C)C)C(=O)N[C@@H](C)C(=O)N[C@@H](CCC(N)=O)C(=O)N[C@@H](CCCCN)C(N)=O)C(C)C)[C@@H](C)CC) [AT295 [hGIP(3-30)NH2[G4K]-C16diacid/4]] | -8.6 | 78.6 | 2.6 | -8.1 | 9.5
5 | EGK(C16 diacid)FISDYSIAMDKIHQQDFVNWLLAQK-NH2 (N-terminus assumed; SMILES CC[C@H](C)[C@H](NC(=O)[C@H](CO)NC(=O)[C@H](Cc1ccc(O)cc1)NC(=O)[C@H](CC(=O)O)NC(=O)[C@H](CO)NC(=O)[C@@H](NC(=O)[C@H](Cc1ccccc1)NC(=O)[C@H](CCCCNC(=O)CCCCCCCCCCCCCCC(=O)O)NC(=O)CNC(=O)[C@@H](N)CCC(=O)O)[C@@H](C)CC)C(=O)N[C@@H](C)C(=O)N[C@@H](CCSC)C(=O)N[C@@H](CC(=O)O)C(=O)N[C@@H](CCCCN)C(=O)N[C@H](C(=O)N[C@@H](Cc1c[nH]cn1)C(=O)N[C@@H](CCC(N)=O)C(=O)N[C@@H](CCC(N)=O)C(=O)N[C@@H](CC(=O)O)C(=O)N[C@@H](Cc1ccccc1)C(=O)N[C@H](C(=O)N[C@@H](CC(N)=O)C(=O)N[C@@H](Cc1c[nH]c2ccccc12)C(=O)N[C@@H](CC(C)C)C(=O)N[C@@H](CC(C)C)C(=O)N[C@@H](C)C(=O)N[C@@H](CCC(N)=O)C(=O)N[C@@H](CCCCN)C(N)=O)C(C)C)[C@@H](C)CC) [AT296 [hGIP(3-30)NH2[T5K]-C16diacid/5]] | -8.6 | 6.7 | 2.6 | -7.8 | 14
6 | K(C16 diacid)GTFISDYSIAMDKIHQQDFVNWLLAQK-NH2 (N-terminus assumed; SMILES CC[C@H](C)[C@H](NC(=O)[C@H](CO)NC(=O)[C@H](Cc1ccc(O)cc1)NC(=O)[C@H](CC(=O)O)NC(=O)[C@H](CO)NC(=O)[C@@H](NC(=O)[C@H](Cc1ccccc1)NC(=O)[C@@H](NC(=O)CNC(=O)[C@@H](N)CCCCNC(=O)CCCCCCCCCCCCCCC(=O)O)[C@@H](C)O)[C@@H](C)CC)C(=O)N[C@@H](C)C(=O)N[C@@H](CCSC)C(=O)N[C@@H](CC(=O)O)C(=O)N[C@@H](CCCCN)C(=O)N[C@H](C(=O)N[C@@H](Cc1c[nH]cn1)C(=O)N[C@@H](CCC(N)=O)C(=O)N[C@@H](CCC(N)=O)C(=O)N[C@@H](CC(=O)O)C(=O)N[C@@H](Cc1ccccc1)C(=O)N[C@H](C(=O)N[C@@H](CC(N)=O)C(=O)N[C@@H](Cc1c[nH]c2ccccc12)C(=O)N[C@@H](CC(C)C)C(=O)N[C@@H](CC(C)C)C(=O)N[C@@H](C)C(=O)N[C@@H](CCC(N)=O)C(=O)N[C@@H](CCCCN)C(N)=O)C(C)C)[C@@H](C)CC) [AT294 [hGIP(3-30)NH2[E3K]-C16diacid/3]] | -8.7 | 74 | 1.8 | -8.6 | 2.5
7 | EGTFK(C16 diacid)SDYSIAMDKIHQQDFVNWLLAQK-NH2 (N-terminus assumed; SMILES CC[C@H](C)[C@H](NC(=O)[C@H](CO)NC(=O)[C@H](Cc1ccc(O)cc1)NC(=O)[C@H](CC(=O)O)NC(=O)[C@H](CO)NC(=O)[C@H](CCCCNC(=O)CCCCCCCCCCCCCCC(=O)O)NC(=O)[C@H](Cc1ccccc1)NC(=O)[C@@H](NC(=O)CNC(=O)[C@@H](N)CCC(=O)O)[C@@H](C)O)C(=O)N[C@@H](C)C(=O)N[C@@H](CCSC)C(=O)N[C@@H](CC(=O)O)C(=O)N[C@@H](CCCCN)C(=O)N[C@H](C(=O)N[C@@H](Cc1c[nH]cn1)C(=O)N[C@@H](CCC(N)=O)C(=O)N[C@@H](CCC(N)=O)C(=O)N[C@@H](CC(=O)O)C(=O)N[C@@H](Cc1ccccc1)C(=O)N[C@H](C(=O)N[C@@H](CC(N)=O)C(=O)N[C@@H](Cc1c[nH]c2ccccc12)C(=O)N[C@@H](CC(C)C)C(=O)N[C@@H](CC(C)C)C(=O)N[C@@H](C)C(=O)N[C@@H](CCC(N)=O)C(=O)N[C@@H](CCCCN)C(N)=O)C(C)C)[C@@H](C)CC) [AT298 [hGIP(3-30)NH2[I7K]-C16diacid/7]] | – | – | – | -7.5 | 33
8 | EGTFISDYSIAMDKIK(Stearoyl)QQDFVNWLLAQK-NH2 (N-terminus assumed; SMILES CCCCCCCCCCCCCCCCCC(=O)NCCCC[C@H](NC(=O)[C@@H](NC(=O)[C@H](CCCCN)NC(=O)[C@H](CC(=O)O)NC(=O)[C@H](CCSC)NC(=O)[C@H](C)NC(=O)[C@@H](NC(=O)[C@H](CO)NC(=O)[C@H](Cc1ccc(O)cc1)NC(=O)[C@H](CC(=O)O)NC(=O)[C@H](CO)NC(=O)[C@@H](NC(=O)[C@H](Cc1ccccc1)NC(=O)[C@@H](NC(=O)CNC(=O)[C@@H](N)CCC(=O)O)[C@@H](C)O)[C@@H](C)CC)[C@@H](C)CC)[C@@H](C)CC)C(=O)N[C@@H](CCC(N)=O)C(=O)N[C@@H](CCC(N)=O)C(=O)N[C@@H](CC(=O)O)C(=O)N[C@@H](Cc1ccccc1)C(=O)N[C@H](C(=O)N[C@@H](CC(N)=O)C(=O)N[C@@H](Cc1c[nH]c2ccccc12)C(=O)N[C@@H](CC(C)C)C(=O)N[C@@H](CC(C)C)C(=O)N[C@@H](C)C(=O)N[C@@H](CCC(N)=O)C(=O)N[C@@H](CCCCN)C(N)=O)C(C)C) [AT160 [hGIP(3-30)NH2[H18K]-C18/18]] | -6 | 13 | 962 | -7.4 | 38
